Source: PMC4067515

Target: recombinant Bet v 1 trimer (birch)
Test: SEC

## recombinant Bet v 1 trimer
  stoichiometry N: 2
